Results on 12 molecules are retold here after patent US20240417436A1 (BRIGHT PEAK THERAPEUTICS, published 2024).

[ ]: non-standard residue; d: D form. Ygp = O-(8x polyethylene glycol-amino)-tyrosine; Yn3 = O-(9x polyethylene glycol-azido)-tyrosine; hSer = N[C@@H](CCO)C(=O)O; Nle = CCCC[C@H](N)C(=O)O

To fix the notation:
T1: IL-2 receptor βγ complex on pan T cells (human, UniProt P14784 27-551; P31785 23-369)
T1 sequence (looked up) 1: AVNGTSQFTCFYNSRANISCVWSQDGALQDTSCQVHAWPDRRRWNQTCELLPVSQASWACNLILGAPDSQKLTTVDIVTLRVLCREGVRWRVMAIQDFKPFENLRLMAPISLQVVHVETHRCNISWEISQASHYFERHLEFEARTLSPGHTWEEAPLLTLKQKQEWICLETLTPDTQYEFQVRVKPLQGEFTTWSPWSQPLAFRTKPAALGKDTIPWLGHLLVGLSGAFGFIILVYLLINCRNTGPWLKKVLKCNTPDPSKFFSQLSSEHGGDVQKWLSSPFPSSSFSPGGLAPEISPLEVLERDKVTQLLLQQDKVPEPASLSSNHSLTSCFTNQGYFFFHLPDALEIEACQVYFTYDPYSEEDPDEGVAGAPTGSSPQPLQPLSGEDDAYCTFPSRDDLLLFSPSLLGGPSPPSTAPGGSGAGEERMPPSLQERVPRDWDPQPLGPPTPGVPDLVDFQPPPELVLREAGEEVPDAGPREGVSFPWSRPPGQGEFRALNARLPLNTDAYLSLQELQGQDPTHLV
T1 sequence (looked up) 2: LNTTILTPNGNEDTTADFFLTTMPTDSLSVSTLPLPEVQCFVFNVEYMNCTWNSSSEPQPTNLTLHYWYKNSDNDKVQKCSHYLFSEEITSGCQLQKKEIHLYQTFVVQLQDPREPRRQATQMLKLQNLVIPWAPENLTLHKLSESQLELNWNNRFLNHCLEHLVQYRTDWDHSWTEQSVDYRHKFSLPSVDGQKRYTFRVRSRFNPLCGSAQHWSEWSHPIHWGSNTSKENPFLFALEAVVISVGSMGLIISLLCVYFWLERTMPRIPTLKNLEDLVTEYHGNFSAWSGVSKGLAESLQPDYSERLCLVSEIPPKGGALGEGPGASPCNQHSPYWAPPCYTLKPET

B1: CMP-148, MMP2 cleaved (ligand)
chain: APTSSSTKKTQLQLKHLLLDLQ[Nle]ILNGINNYKNPKLTR[Nle]L[hSer][Yn3]KF[Ygp][Nle]PKKATELKHLQCLEEELKPLEEVL[hSer]LAQSKNFHLRPRDLISNINVIVLELKGSETTF[hSer]CEYADETATIVEFLNRWITFSQSIISTLT
modifications: not fully specified (residue 15); ends and bridges not checked; also: MMP2-cut remnant of cleavable moiety on Lys15 side chain, not given here
B2: CMP-143, MMP2 cleaved (ligand)
chain: APTSSSTKKTQLQLEHLLLDLQKILNGINNYKNPKLTR[Nle]L[hSer][Yn3]KF[Ygp][Nle]PKKATELKHLQCLEEELKPLEEVL[hSer]LAQSKNFHLRPRDLISNINVIVLELKGSETTF[hSer]CEYADETATIVEFLNRWITFSQSIISTLT
modifications: not fully specified (residue 23); ends and bridges not checked; also: MMP2-cut remnant of cleavable moiety on Lys23 side chain, not given here
B3: CMP-149, MMP2 cleaved (ligand)
chain: APTSSSTKKTQLQLEHLLKDLQ[Nle]ILNGINNYKNPKLTR[Nle]L[hSer][Yn3]KF[Ygp][Nle]PKKATELKHLQCLEEELKPLEEVL[hSer]LAQSKNFHLRPRDLISNINVIVLELKGSETTF[hSer]CEYADETATIVEFLNRWITFSQSIISTLT
modifications: not fully specified (residue 19); ends and bridges not checked; also: MMP2-cut remnant of cleavable moiety on Lys19 side chain, not given here
B4: CMP-149 (ligand)
chain: APTSSSTKKTQLQLEHLLKDLQ[Nle]ILNGINNYKNPKLTR[Nle]L[hSer][Yn3]KF[Ygp][Nle]PKKATELKHLQCLEEELKPLEEVL[hSer]LAQSKNFHLRPRDLISNINVIVLELKGSETTF[hSer]CEYADETATIVEFLNRWITFSQSIISTLT
modifications: not fully specified (residue 19); ends and bridges not checked; also: cleavable moiety on Lys19 side chain, structure not given here
B5: CMP-146, MMP2 cleaved (ligand)
chain: APTSSSTKKTKLQLEHLLLDLQ[Nle]ILNGINNYKNPKLTR[Nle]L[hSer][Yn3]KF[Ygp][Nle]PKKATELKHLQCLEEELKPLEEVL[hSer]LAQSKNFHLRPRDLISNINVIVLELKGSETTF[hSer]CEYADETATIVEFLNRWITFSQSIISTLT
modifications: not fully specified (residue 11); ends and bridges not checked; also: MMP2-cut remnant of cleavable moiety on Lys11 side chain, not given here
B6: CMP-142, MMP2 cleaved (ligand)
chain: APTSSSTKKTQLQLEHLLLDLQKILNGINNYKNPKLTR[Nle]L[hSer][Yn3]KF[Ygp][Nle]PKKATELKHLQCLEEELKPLEEVL[hSer]LAQSKNFHLRPRDLISNINVIVLELKGSETTF[hSer]CEYADETATIVEFLNRWITFSQSIISTLT
modifications: not fully specified (residue 23); ends and bridges not checked; also: MMP2-cut remnant of cleavable moiety on Lys23 side chain, not given here
B7: CMP-147 (ligand)
chain: APTSSSTKKTQLKLEHLLLDLQ[Nle]ILNGINNYKNPKLTR[Nle]L[hSer][Yn3]KF[Ygp][Nle]PKKATELKHLQCLEEELKPLEEVL[hSer]LAQSKNFHLRPRDLISNINVIVLELKGSETTF[hSer]CEYADETATIVEFLNRWITFSQSIISTLT
modifications: not fully specified (residue 13); ends and bridges not checked; also: cleavable moiety on Lys13 side chain, structure not given here
B8: CMP-147, MMP2 cleaved (ligand)
chain: APTSSSTKKTQLKLEHLLLDLQ[Nle]ILNGINNYKNPKLTR[Nle]L[hSer][Yn3]KF[Ygp][Nle]PKKATELKHLQCLEEELKPLEEVL[hSer]LAQSKNFHLRPRDLISNINVIVLELKGSETTF[hSer]CEYADETATIVEFLNRWITFSQSIISTLT
modifications: not fully specified (residue 13); ends and bridges not checked; also: MMP2-cut remnant of cleavable moiety on Lys13 side chain, not given here
B9: CMP-145, MMP2 cleaved (ligand)
chain: APTSSSTKKTQLQLEHLLLDLQKILNGINNYKNPKLTR[Nle]L[hSer][Yn3]KF[Ygp][Nle]PKKATELKHLQCLEEELKPLEEVL[hSer]LAQSKNFHLRPRDLISNINVIVLELKGSETTF[hSer]CEYADETATIVEFLNRWITFSQSIISTLT
modifications: not fully specified (residue 23, bridges); also: Lys23 side chain bears KKPLGLAG (branched PEG) peptide cut by MMP2, remnants stay attached, cut site not given here
B10: CMP-148 (ligand)
chain: APTSSSTKKTQLQLKHLLLDLQ[Nle]ILNGINNYKNPKLTR[Nle]L[hSer][Yn3]KF[Ygp][Nle]PKKATELKHLQCLEEELKPLEEVL[hSer]LAQSKNFHLRPRDLISNINVIVLELKGSETTF[hSer]CEYADETATIVEFLNRWITFSQSIISTLT
modifications: not fully specified (residue 15); ends and bridges not checked; also: cleavable moiety on Lys15 side chain, structure not given here
B11: CMP-144, MMP2 cleaved (ligand)
chain: APTSSSTKKTQLQLEHLLLDLQKILNGINNYKNPKLTR[Nle]L[hSer][Yn3]KF[Ygp][Nle]PKKATELKHLQCLEEELKPLEEVL[hSer]LAQSKNFHLRPRDLISNINVIVLELKGSETTF[hSer]CEYADETATIVEFLNRWITFSQSIISTLT
modifications: not fully specified (residue 23); ends and bridges not checked; also: MMP2-cut remnant of cleavable moiety on Lys23 side chain, not given here
B12: CMP-146 (ligand)
chain: APTSSSTKKTKLQLEHLLLDLQ[Nle]ILNGINNYKNPKLTR[Nle]L[hSer][Yn3]KF[Ygp][Nle]PKKATELKHLQCLEEELKPLEEVL[hSer]LAQSKNFHLRPRDLISNINVIVLELKGSETTF[hSer]CEYADETATIVEFLNRWITFSQSIISTLT
modifications: not fully specified (residue 11); ends and bridges not checked; also: cleavable moiety on Lys11 side chain, structure not given here

The assay addresses T1, IL-2 receptor βγ complex on pan T cells. Briefly: cell-based or functional assay.
Take B1: the “Average EC50, pSTAT5 assay in pan T cells, MMP2 cleaved molecule” value (from here on “Average EC50 … MMP2 cleaved molecule”) was found to be 0.95 nM. On the same count and under the same terms, the same measure for B2: 1.99 nM. Still for that read-out and setting: the result for B3 reads 9.56 nM. As to B4, the “Average EC50, pSTAT5 assay in pan T cells, intact molecule” value (shortened to “Average EC50 … intact molecule”) was determined as 46.7 nM. Take B5: the “Average EC50 … MMP2 cleaved molecule” value is 0.92 nM.

Consider B6, for which the “Average EC50 … MMP2 cleaved molecule” value stood at 0.56 nM. As to B7, the “Average EC50 … intact molecule” value worked out at 3.86 nM. As to B8, the “Average EC50 … MMP2 cleaved molecule” value was found to be 1.29 nM. The same measure, in the same setting: the result for B9 reads 1.43 nM. With B10, the “Average EC50 … intact molecule” value is 3.57 nM. B11: the “Average EC50 … MMP2 cleaved molecule” value worked out at 0.63 nM.

Regarding B12, the “Average EC50 … intact molecule” value was 4.29 nM.
